According to patent publication US20200115460A1 (TEIJIN PHARMA, published 2020):

Experiments:
human IGF-I receptor [1] = target: T1, human IGF-I receptor (human, UniProt P08069 31-1367); assay: Cell ELISA, fixed cells expressing the receptor
T1 construct: Expressed on transfected P3U1 or HEK 293T cells, or native on human myoblasts; also called hIGFIR; IGF-I receptor of human (NP_000866)
Procedure: (§1) In ELISA, antibody solutions (30 μL) adjusted to predetermined concentrations with 0.1% skimmed milk/3% BSA/PBS were added to respective wells and were subjected to reaction at room temperature for about 1 hour. After washing with a washing liquid (tris buffer containing Tween) twice, anti-mouse-IgG antibody-ALP conjugate solutions (30 μL) adjusted to predetermined concentrations with 0.1% skimmed milk/3% BSA/PBS were added to respective wells and were subjected to reaction at room temperature for about 1 hour. After washing with a washing liquid twice, 100 μL of a substrate (PNPP) was added to each well to start the reaction.

human IGF-I receptor [2] = target: T1, human IGF-I receptor; assay: cell-based or functional assay
[3] = target: guinea pig IGF-I receptor (guinea pig, UniProt P08069 31-1367 (human entry)); assay: cell-based or functional assay
rat IGF-I receptor = target: T2, rat IGF-I receptor (rat, UniProt P24062 31-1370); assay: Cell ELISA on P3U1 cells expressing the receptor
T2 construct: Expressed on transfected P3U1 cells; also called NP_494694

mouse IGF-I receptor = target: T3, mouse IGF-I receptor (mouse, UniProt Q60751 31-1373); assay: Cell ELISA on P3U1 cells expressing the receptor
T3 construct: Expressed on transfected P3U1 cells; also called NP_034643

[4] = target: T4, Substitution 3 of the CR domain (human IGF-I receptor G315S/S316T, FLAG tag) (human, UniProt P08069 31-1367); assay: Cell ELISA, 1 nM antibody, fixed HEK 293T cells
T4 construct: Expressed on transfected HEK 293T cells
Procedure: (§2) On the next day, each plasmid DNA was transfected into the cells by lipofection. On the following day, the HEK 293T cells were detached with 0.25% trypsin/EDTA and were suspended in a broth. The HEK 293T cells were added to a 96-well plate (coated with poly-D-lysine) at a concentration of 0.8×10⁵ cells/well and were incubated at 37° C. under conditions of 5% CO₂ overnight. The medium was removed from the 96-well plate, and the cells were immobilized with a 10% buffered formalin (Mildform® 10 NM, Wako). The 10% buffered formalin was replaced with a blocking buffer (3% BSA/PBS/sodium azide), and the plate was used in ELISA.
(§3) After washing with a washing liquid twice, anti-mouse-IgG antibody-HRP conjugate solutions (50 μL) adjusted to predetermined concentrations with 0.1% skimmed milk/3% BSA/PBS were added to respective wells and were subjected to reaction at room temperature for about 1 hour. After washing with a washing liquid twice, 100 μL of a substrate (TMB) was added to each well to start the reaction. After about 30 minutes, 100 μL of 0.5 M sulfuric acid was added to each well to stop the reaction, and the absorbances at 450 nm was measured. The value of the absorbance at 450 nm was evaluated as the avidity.

[5] = target: T5, wild-type rat IGF-I receptor (FLAG tag, Example 7) (rat, UniProt P24062 31-1370); assay: Cell ELISA, 1 nM antibody, fixed HEK 293T cells
T5 construct: Expressed on transfected HEK 293T cells
Procedure: as §2, §3

[6] = target: T6, Substitution 2 of the CR domain (human IGF-I receptor E294D, FLAG tag) (human, UniProt P08069 31-1367); assay: Cell ELISA, 1 nM antibody, fixed HEK 293T cells
T6 construct: Expressed on transfected HEK 293T cells
Procedure: as §2, §3

[7] = target: T7, wild-type human IGF-I receptor (FLAG tag, Example 7) (human, UniProt P08069 31-1367); assay: Cell ELISA, 1 nM antibody, fixed HEK 293T cells
T7 construct: Expressed on transfected HEK 293T cells
Procedure: as §2, §3

[8] = target: T8, Substitution 1 of the CR domain (human IGF-I receptor D245N/A247T, FLAG tag) (human, UniProt P08069 31-1367); assay: Cell ELISA, 1 nM antibody, fixed HEK 293T cells
T8 construct: Expressed on transfected HEK 293T cells
Procedure: as §2, §3

human insulin receptor = target: T9, human insulin receptor (human, UniProt P06213 28-1382); assay: Cell ELISA, fixed HEK 293T cells expressing the receptor
T9 construct: whole, on cells; Expressed on transfected HEK 293T cells; also called INSR; hINSR
Procedure: The HEK 293T cells after the lipofection were added to a 96-well plate (coated with poly-D-lysine) at a concentration of 0.8×10⁵ cells/well (about 180 μL/well) and were immobilized with 10% buffered formalin (Mildform® 10 NM, Wako), followed by blocking with phosphate buffer containing 3% BSA. The plate was used in ELISA.
as §1

[9] = target: T5, wild-type rat IGF-I receptor (FLAG tag, …); assay: Cell ELISA on HEK 293T cells expressing the receptor
Procedure: HEK 293T cells were seeded in a 10-cm dish coated with poly-D-lysine at 9×10⁶ cells/well. On the next day, each plasmid DNA was transfected into the cells by lipofection. On the following day, the HEK 293T cells were detached with 0.25% trypsin/EDTA and were suspended in a broth. The HEK 293T cells were added to a 96-well plate (coated with poly-D-lysine) at a concentration of 0.8×10⁵ cells/well and were incubated at 37° C. under conditions of 5% CO₂ overnight. The medium was removed from the 96-well plate, and the cells were immobilized with a 10% buffered formalin (Mildform® 10 NM, Wako). The 10% buffered formalin was replaced with a blocking buffer (3% BSA/PBS/sodium azide), and the plate was used in ELISA.
as §3

T5 sequence (P24062 other isoform, or with tags, fused parts or gaps limits assumed): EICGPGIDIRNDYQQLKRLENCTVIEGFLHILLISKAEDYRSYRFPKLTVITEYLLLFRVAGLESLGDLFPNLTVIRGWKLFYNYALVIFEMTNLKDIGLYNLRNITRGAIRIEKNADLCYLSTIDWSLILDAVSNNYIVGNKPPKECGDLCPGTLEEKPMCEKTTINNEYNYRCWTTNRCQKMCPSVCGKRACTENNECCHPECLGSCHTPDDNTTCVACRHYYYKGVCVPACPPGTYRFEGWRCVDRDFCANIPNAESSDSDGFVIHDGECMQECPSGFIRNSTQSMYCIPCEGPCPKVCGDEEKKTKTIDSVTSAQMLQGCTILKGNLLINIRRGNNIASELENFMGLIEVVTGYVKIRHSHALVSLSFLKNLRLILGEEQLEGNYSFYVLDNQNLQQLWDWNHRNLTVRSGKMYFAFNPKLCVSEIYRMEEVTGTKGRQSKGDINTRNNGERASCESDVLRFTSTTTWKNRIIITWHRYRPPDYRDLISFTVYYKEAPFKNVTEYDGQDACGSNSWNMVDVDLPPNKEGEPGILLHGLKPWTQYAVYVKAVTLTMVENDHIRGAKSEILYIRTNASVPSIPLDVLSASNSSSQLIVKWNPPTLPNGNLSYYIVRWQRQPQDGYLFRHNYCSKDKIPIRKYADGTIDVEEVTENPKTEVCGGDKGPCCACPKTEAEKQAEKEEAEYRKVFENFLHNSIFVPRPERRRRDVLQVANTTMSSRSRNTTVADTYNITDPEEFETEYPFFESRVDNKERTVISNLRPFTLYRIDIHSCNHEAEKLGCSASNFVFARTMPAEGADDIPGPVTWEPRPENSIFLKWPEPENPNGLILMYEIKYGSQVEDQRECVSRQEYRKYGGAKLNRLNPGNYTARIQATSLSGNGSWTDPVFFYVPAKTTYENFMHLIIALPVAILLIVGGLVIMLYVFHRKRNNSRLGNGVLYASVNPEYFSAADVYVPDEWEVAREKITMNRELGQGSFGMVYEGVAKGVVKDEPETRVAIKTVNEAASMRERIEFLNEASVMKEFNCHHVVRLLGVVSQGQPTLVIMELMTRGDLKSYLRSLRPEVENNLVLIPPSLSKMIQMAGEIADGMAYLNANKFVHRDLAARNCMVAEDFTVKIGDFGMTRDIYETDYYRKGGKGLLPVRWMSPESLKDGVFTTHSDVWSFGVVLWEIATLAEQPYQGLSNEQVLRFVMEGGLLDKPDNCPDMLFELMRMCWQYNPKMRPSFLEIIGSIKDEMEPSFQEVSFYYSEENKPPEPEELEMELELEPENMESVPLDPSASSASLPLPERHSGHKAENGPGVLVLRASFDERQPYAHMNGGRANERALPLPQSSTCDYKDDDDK
T3 sequence (Q60751 other isoform, or with tags, fused parts or gaps limits assumed): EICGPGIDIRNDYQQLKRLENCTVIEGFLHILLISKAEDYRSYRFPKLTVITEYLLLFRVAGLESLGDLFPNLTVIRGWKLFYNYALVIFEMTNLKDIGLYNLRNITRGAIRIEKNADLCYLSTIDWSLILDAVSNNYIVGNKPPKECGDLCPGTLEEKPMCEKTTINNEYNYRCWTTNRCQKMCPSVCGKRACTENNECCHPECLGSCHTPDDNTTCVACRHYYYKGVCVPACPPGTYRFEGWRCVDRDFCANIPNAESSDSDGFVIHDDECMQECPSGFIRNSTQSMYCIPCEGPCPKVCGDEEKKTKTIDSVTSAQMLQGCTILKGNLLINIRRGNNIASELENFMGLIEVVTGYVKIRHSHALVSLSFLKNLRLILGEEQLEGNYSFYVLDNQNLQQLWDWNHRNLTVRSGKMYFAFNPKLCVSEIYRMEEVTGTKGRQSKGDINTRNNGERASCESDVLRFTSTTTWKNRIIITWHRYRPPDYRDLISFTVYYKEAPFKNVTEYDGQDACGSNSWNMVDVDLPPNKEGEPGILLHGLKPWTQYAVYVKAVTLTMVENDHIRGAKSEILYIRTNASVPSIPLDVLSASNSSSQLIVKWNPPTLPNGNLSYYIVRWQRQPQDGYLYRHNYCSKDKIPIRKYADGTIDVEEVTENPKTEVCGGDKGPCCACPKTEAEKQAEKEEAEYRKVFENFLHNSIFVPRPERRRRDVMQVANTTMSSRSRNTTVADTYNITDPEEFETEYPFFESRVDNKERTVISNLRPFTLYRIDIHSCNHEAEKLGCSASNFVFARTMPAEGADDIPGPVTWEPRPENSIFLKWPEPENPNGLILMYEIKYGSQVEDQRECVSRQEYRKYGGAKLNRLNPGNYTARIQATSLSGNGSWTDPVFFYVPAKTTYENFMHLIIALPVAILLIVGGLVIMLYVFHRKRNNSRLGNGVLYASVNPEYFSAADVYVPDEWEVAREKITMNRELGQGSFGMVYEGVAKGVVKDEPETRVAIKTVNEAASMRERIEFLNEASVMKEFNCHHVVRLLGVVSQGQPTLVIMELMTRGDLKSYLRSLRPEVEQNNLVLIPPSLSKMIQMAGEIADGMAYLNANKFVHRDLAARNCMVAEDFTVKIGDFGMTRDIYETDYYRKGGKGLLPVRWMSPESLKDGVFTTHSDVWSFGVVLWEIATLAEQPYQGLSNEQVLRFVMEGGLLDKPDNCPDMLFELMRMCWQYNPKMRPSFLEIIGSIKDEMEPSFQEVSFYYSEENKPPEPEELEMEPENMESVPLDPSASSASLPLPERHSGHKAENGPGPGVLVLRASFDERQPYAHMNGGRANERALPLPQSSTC
T2 sequence (P24062 31-1370 limits assumed): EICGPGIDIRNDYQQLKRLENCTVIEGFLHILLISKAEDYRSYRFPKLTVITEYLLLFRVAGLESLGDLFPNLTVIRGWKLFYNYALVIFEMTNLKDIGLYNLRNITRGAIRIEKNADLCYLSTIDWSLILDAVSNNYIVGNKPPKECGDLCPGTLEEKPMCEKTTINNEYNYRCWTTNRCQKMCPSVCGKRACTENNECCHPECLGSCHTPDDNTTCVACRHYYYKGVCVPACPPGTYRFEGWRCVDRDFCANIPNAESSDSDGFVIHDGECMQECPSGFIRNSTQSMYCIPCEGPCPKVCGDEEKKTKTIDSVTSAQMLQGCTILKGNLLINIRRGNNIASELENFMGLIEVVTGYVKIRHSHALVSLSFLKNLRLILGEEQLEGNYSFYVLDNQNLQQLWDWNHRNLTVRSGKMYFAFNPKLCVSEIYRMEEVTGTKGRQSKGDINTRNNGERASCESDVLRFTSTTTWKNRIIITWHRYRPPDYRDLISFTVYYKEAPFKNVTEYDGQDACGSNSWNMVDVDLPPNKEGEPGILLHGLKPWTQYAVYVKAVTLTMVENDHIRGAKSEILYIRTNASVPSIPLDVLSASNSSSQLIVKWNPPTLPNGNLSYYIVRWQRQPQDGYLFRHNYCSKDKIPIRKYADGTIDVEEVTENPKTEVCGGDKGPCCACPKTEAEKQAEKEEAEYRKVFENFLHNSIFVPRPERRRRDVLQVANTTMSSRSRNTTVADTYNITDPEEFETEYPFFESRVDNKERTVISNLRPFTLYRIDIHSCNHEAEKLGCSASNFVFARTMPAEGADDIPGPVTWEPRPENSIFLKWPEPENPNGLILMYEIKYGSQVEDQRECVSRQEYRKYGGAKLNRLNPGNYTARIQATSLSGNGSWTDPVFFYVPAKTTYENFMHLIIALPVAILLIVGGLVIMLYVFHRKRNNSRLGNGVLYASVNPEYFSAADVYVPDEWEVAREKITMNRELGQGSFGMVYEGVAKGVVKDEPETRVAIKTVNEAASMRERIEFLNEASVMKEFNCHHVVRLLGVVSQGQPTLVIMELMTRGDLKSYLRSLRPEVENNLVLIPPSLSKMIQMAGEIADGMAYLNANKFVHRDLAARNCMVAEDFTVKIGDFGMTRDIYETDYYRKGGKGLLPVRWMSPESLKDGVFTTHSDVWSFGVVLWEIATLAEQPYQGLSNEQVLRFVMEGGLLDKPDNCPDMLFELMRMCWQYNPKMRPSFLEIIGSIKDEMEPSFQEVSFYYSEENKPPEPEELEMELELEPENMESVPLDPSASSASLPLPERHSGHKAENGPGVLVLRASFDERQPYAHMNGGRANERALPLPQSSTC

avidity (absorbance difference 405-550 nm, Mock cells = 1) at 0.5 nM (human IGF-I receptor [1]): 2.9 fold of Mock cells
avidity (absorbance difference 405-550 nm, Mock cells = 1) at 5 nM (human IGF-I receptor [1]): 3.7 fold of Mock cells
EC50 of the myoblast proliferative activity, human myoblasts (human IGF-I receptor [2]): 4 pM
EC50 of the myoblast proliferative activity, guinea pig myoblasts [3]: 4 pM
binding result (rat IGF-I receptor): no binding (tested: 10 nM)
binding result (mouse IGF-I receptor): no binding (tested: 10 nM)
absorbance at 450 nm [4]: ~1 absorbance at 450 nm
absorbance at 450 nm [5]: ~1 absorbance at 450 nm
absorbance at 450 nm [6]: ≥ 2 absorbance at 450 nm
absorbance at 450 nm [7]: ≥ 2 absorbance at 450 nm
absorbance at 450 nm [8]: ≥ 2 absorbance at 450 nm
avidity (absorbance difference 405-550 nm, Mock cells = 1) at 0.5 nM (human insulin receptor): 1.1 fold of Mock cells
avidity (absorbance difference 405-550 nm, Mock cells = 1) at 5 nM (human insulin receptor): 1.4 fold of Mock cells
binding result [9]: no binding (tested: 1 nM)
B1: IGF11-16 (antibody, mouse IgG1, kappa, V domains shown)
VH: QIQLQQPGAELVKPGASVKLSCKAPGYTFTSYWMHWVKQRPGQGLEWIGETNPSNSVTNYNEKFKSKATLTVDKSSSTAYMQLSSLTSEDSAVYYCTIGRGRGFAYWGQGTLVTVSA
VL: DIQMNQSPSSLSASLGDTITITCRASQNINFWLSWCQQKPGNIPKLLIYKASNLHTGVPSRFSGSGSGTDFTLTISSLQPEDIATYYCLQGQSYPYTFGGGTKLEIKR
notes: no cleavage site is stated; also called IGF-I receptor agonist antibody; IGF11-16 antibody
